2 molecules from PMC3380618 can be followed below.

One data set has as its target EcoRV K119A (UniProt P04390 2-245, K119A). In words: filter binding.
Data set [1] deals with EcoRV endonuclease wild type (UniProt P04390 2-245). The data set is described as follows: FRET.

B1: PMe-2 racemic (dsDNA)
DNA 1: TGTGTTGTAGGATATCCTACAGGT
DNA 2: ACCTGTAGGATATCCTACAACACA
modifications: racemic Rp,Sp methylphosphonate at P-2, symmetric in both strands
Regarding B1, the Kd – broadly, the concentration at which binding is half-saturated – with EcoRV K119A worked out at 1.1 pM.

B2: FRET 14 bp GATATC (dsDNA)
DNA 1: AGAAGATATCTTGA
DNA 2: TCAAGATATCTTCT
For B2, the binding result in data set [1] is on record as “binds”.
